How the values were obtained:
VEGF165 = VEGF165 (UniProt P15692-4 P15692-4:27-191); assay: filter; conditions: chain copies: 2 (stated dimeric)
[1] = target: SARS-CoV-2 spike S1 subunit (SARS-CoV-2, UniProt P0DTC2 P0DTC2:14-685); assay: filter
[2] = target: T1, Bovine serum albumin (BSA) (Bos taurus, UniProt P02769 P02769:25-607); assay: filter; dot blot, no binding; conditions: tags: Sigma-Aldrich A7906; label: 5'-32P
Amylase = target: T2, Amylase (UniProt P0DUB6 P0DUB6:16-511); assay: ELONA; conditions: tags: Sigma-Aldrich A1031
T2 sequence: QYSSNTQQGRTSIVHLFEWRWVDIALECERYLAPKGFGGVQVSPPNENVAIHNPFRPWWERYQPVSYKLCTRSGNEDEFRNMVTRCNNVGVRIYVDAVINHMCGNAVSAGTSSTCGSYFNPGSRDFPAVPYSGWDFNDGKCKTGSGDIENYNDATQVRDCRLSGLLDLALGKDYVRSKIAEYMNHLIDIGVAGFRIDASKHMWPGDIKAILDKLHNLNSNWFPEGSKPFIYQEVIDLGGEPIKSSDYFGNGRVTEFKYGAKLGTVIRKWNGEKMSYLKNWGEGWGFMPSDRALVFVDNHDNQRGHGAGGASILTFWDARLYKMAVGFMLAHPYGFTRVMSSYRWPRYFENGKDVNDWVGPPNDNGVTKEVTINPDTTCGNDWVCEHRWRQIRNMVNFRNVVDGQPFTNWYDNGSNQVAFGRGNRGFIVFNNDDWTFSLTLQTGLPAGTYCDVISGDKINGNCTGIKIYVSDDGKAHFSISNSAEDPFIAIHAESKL

SARS-CoV-1 spike protein = SARS-CoV-1 spike protein (SARS-CoV-1, UniProt P59594 P59594:14-1195); assay: ELONA; conditions: tags: from Dr. Matthew Miller's lab, McMaster University; label: biotin
[3] = target: Spike RBD of seasonal coronavirus OC43 (Human coronavirus OC43, UniProt P36334 P36334:333-607); assay: ELONA; conditions: tags: from Dr. Matthew Miller's lab, McMaster University
Spike RBD of seasonal coronavirus OC43, sequence (P36334 333-607, one chain of several): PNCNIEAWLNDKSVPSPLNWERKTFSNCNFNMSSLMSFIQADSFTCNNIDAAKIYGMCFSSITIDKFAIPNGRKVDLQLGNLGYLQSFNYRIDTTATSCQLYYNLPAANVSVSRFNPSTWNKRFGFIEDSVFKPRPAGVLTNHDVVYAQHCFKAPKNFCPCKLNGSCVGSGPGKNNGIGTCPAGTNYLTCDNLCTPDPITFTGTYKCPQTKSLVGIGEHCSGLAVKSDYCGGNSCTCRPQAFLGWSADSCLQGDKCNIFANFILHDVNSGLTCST

[4] = target: Spike RBD of seasonal coronavirus 229E (Human coronavirus 229E, UniProt P15423 P15423:293-435); assay: ELONA; conditions: tags: from Dr. Matthew Miller's lab, McMaster University
Spike RBD of seasonal coronavirus 229E, sequence (P15423 293-435, one chain of several): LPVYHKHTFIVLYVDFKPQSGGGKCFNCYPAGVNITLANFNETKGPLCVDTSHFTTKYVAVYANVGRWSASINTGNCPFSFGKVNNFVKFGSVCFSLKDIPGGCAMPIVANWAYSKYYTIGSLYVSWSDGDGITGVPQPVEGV

[5] = target: T1, Bovine serum albumin (BSA); assay: ELONA; conditions: tags: Sigma-Aldrich A7906

VEGF165, sequence (P15692 other isoform, or with tags, fused parts or gaps): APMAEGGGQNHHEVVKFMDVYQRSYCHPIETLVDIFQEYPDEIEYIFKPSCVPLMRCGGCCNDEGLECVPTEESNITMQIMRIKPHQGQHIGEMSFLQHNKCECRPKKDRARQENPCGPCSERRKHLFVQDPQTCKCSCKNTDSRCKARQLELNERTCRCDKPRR
T1 sequence (P02769 25-607, one chain of several): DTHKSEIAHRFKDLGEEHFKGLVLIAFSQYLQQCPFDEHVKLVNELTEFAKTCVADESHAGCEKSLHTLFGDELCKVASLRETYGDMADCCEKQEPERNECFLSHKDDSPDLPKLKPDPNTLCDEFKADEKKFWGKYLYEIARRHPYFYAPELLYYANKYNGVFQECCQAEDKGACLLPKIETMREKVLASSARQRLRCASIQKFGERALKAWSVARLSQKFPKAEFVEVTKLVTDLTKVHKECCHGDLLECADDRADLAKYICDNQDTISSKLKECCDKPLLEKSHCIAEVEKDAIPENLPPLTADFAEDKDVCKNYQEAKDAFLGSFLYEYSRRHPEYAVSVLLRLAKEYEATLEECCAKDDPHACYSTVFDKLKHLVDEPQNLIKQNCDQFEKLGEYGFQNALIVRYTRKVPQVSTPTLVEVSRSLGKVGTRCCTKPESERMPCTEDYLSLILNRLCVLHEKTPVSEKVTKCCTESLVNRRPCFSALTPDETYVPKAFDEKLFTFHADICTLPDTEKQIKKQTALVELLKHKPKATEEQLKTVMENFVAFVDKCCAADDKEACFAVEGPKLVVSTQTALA

B1: Trimeric (trident) H1A (ssDNA)
DNA: GCCCGTCTTCCAGACAAGAGTGCAGGGCTTTTTCTCTCGC
modifications: three identical arms joined by Trebler, root TTTTT-Biotin
Kd (VEGF165): 0.27 nM

B2: H1A (ssDNA)
DNA: GCCCGTCTTCCAGACAAGAGTGCAGGGC
Kd (VEGF165): 21.3 nM

B3: TMSA52T8 (ssDNA)
DNA: CGAAGCATCTCGTGTCACTCCGTAGGGTTTGGCTCCGGGCCTGGCGTCGTTTTTCTCTCGC
modifications: three identical arms joined by Trebler, root TTTTT-Biotin
Kd [1]: 0.21 nM

B4: MSA52T8 (ssDNA)
DNA: CGAAGCATCTCGTGTCACTCCGTAGGGTTTGGCTCCGGGCCTGGCGTCG
Kd [1]: 6.5 nM

B5: Trimeric (trident) RHA06 (ssDNA)
DNA: GGGTTTGGGTTGGGTTGGGTTTTTGGGTTTGGGTTGGGTTGGGAAAAATTTTTCTCTCGC
modifications: three identical arms (SEQ 12) joined by Trebler, root TTTTT-Biotin
binding result [2]: no binding

B6: TMSA52-B (ssDNA)
DNA: TTACGTCAAGGTGTCACTCCGTAGGGTTTGGCTCCGGGCCTGGCGTCGGTCGTCTCTCGCGAAGCATCTCTTTGGCGTGTTTTTTTTTTTTTTT
modifications: three identical arms joined by Trebler, root TTTTT-Biotin
binding result (Amylase): no binding | binding result (SARS-CoV-1 spike protein): no binding | binding result [3]: no binding | binding result [4]: no binding | binding result [5]: no binding
